Data published in patent US20240124563A1.
Values belong to the substance of their own block, whether it stands above or below them.

Legend:
[1] = biological target: human MSLN-R1-his protein (human) (UniProt Q13421); experiment: ELISA, coated antigen, 100 nM antibody
[2] = biological target: monkey MSLN full-length protein on HEK293T cells (monkey); experiment: FACS, HEK293T-monkey MSLN cells
[3] = biological target: monkey MSLN full-length protein on HEK293T cells (monkey); experiment: FACS, HEK293T-monkey-MSLN cells, antibody 20 nM
[4] = biological target: monkey MSLN full-length protein on HEK293T cells (monkey); experiment: FACS, HEK293T-monkey-MSLN cells, antibody 100 nM
[5] = biological target: monkey MSLN full-length protein on HEK293T cells (monkey); experiment: FACS, HEK293T-monkey-MSLN cells, antibody 0.0064 nM
[6] = biological target: monkey MSLN full-length protein on HEK293T cells (monkey); experiment: FACS, HEK293T-monkey-MSLN cells, antibody 4 nM
[7] = biological target: monkey MSLN full-length protein on HEK293T cells (monkey); experiment: FACS, HEK293T-monkey-MSLN cells, antibody 0.16 nM
[8] = biological target: monkey MSLN full-length protein on HEK293T cells (monkey); experiment: FACS, HEK293T-monkey-MSLN cells, antibody 0.032 nM
[9] = biological target: monkey MSLN full-length protein on HEK293T cells (monkey); experiment: FACS, HEK293T-monkey-MSLN cells, antibody 0.00128 nM
[10] = biological target: monkey MSLN full-length protein on HEK293T cells (monkey); experiment: FACS, HEK293T-monkey-MSLN cells, antibody 0.8 nM
[11] = biological target: human MSLN-R3-rFc protein (human) (UniProt Q13421); experiment: ELISA, antibody 20 nM
[12] = biological target: human MSLN-R3-rFc protein (human) (UniProt Q13421); experiment: ELISA, antibody 0.0064 nM
[13] = biological target: human MSLN-R3-rFc protein (human) (UniProt Q13421); experiment: ELISA, antibody 4 nM
[14] = biological target: human MSLN-R3-rFc protein (human) (UniProt Q13421); experiment: ELISA, antibody 100 nM
[15] = biological target: human MSLN-R3-rFc protein (human) (UniProt Q13421); experiment: ELISA, antibody 1 nM
[16] = biological target: human MSLN-R2-his protein (human) (UniProt Q13421); experiment: ELISA, coated antigen, 100 nM antibody
Sequence of human MSLN-R2-his protein (human) (Q13421 other isoform, or with tags, fused parts or gaps): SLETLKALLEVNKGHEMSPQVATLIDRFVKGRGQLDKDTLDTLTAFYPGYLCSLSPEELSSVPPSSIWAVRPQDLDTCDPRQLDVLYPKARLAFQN

[17] = biological target: human MSLN-FL-his protein (human) (UniProt Q13421); experiment: ELISA, coated antigen, 0.2 nM antibody
Sequence of human MSLN-FL-his protein (human) (Q13421 other isoform, or with tags, fused parts or gaps): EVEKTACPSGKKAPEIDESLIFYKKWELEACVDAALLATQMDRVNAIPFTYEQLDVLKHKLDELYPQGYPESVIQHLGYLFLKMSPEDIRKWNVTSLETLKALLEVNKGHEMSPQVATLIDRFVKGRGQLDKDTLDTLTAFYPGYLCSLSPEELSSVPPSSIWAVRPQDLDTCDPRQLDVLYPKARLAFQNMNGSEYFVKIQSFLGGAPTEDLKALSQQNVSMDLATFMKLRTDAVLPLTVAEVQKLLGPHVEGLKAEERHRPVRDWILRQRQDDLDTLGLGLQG

[18] = biological target: human MSLN-FL-his protein (human) (UniProt Q13421); experiment: ELISA, coated antigen, 20 nM antibody

Sequence of human MSLN-R1-his protein (human) (Q13421 other isoform, or with tags, fused parts or gaps): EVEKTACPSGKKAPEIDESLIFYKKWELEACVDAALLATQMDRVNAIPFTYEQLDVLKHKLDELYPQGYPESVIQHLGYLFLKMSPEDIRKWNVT

- OD450 nm [1]: 0.12 OD450 nm
- EC50 [2]: 0.83 nM
- Max MFI [2]: 4240
Substance: Tab108 (YP218, scFv-hIgG1 Fc) (Fc fusion)

- FACS signal (MFI) [3]: 85
- FACS signal (MFI) [4]: 87
- FACS signal (MFI) [5]: 85
- FACS signal (MFI) [6]: 86
- FACS signal (MFI) [7]: 83
- FACS signal (MFI) [8]: 106
- FACS signal (MFI) [9]: 93
- FACS signal (MFI) [10]: 87
Substance: Tab131 (m912, scFv-hIgG1 Fc) (Fc fusion)

- OD450 nm [11]: 0.86
- OD450 nm [12]: 0.16
- OD450 nm [13]: 0.23
- OD450 nm [14]: 1.11
- OD450 nm [15]: 0.11
Substance: anti-human MSLN antibody (purchased from Acro, Cat. No. MSN-M30)

- OD450 nm [1]: 0.2 OD450 nm
- OD450 nm [16]: 0.16 OD450 nm
- OD450 nm [17]: 0.24 OD450 nm
- OD450 nm [18]: 0.28 OD450 nm
Substance: hIgG1 (IgG control) (antibody)
